# Measurements taken from IntAct's records for PubMed 35512704.
# B1: Speckle-type POZ protein (Homo sapiens), O43791 (parent)
# chain: MSRVPSPPPPAEMSSGPVAESWCYTQIKVVKFSYMWTINNFSFCREEMGEVIKSSTFSSGANDKLKWCLRVNPKGLDEESKDYLSLYLLLVSCPKSEVRAKFKFSILNAKGEETKAMESQRAYRFVQGKDWGFKKFIRRDFLLDEANGLLPDDKLTLFCEVSVVQDSVNISGQNTMNMVKVPECRLADELGGLWENSRFTDCCLCVAGQEFQAHKAILAARSPVFSAMFEHEMEESKKNRVEINDVEPEVFKEMMCFIYTGKAPNLDKMADDLLAAADKYALERLKVMCEDALCSNLSVENAAEILILADLHSADQLKTQAVDFINYHASDVLETSGWKSMVVSHPHLVAEAYRSLASAQCPFLGPPRKRLKQS
# Variants of: B1
# Details: with rl5_human RPL5, P46777
row,effect of a mutation on the interaction,Variant
1,with no effect,MSRVPSPPPPAEMSSGPVAESWCYTQIKVVKFSYMWTINNFSFCREEMGEVIKSSTFSSGANDKLKWCLRVNPKGLDEESKDYLSLYLLLVSCPKSEVRAKFKFSILNAKGEETKAMESQRAYRFVQGKDWGVKKFIRRDFLLDEANGLLPDDKLTLFCEVSVVQDSVNISGQNTMNMVKVPECRLADELGGLWENSRFTDCCLCVAGQEFQAHKAILAARSPVFSAMFEHEMEESKKNRVEINDVEPEVFKEMMCFIYTGKAPNLDKMADDLLAAADKYALERLKVMCEDALCSNLSVENAAEILILADLHSADQLKTQAVDFINYHASDVLETSGWKSMVVSHPHLVAEAYRSLASAQCPFLGPPRKRLKQS [F133V]

# Variants of: B1
# Details: with rs15_human RPS15, P62841
row,effect of a mutation on the interaction,Variant
1,with no effect,MSRVPSPPPPAEMSSGPVAESWCYTQIKVVKFSYMWTINNFSFCREEMGEVIKSSTFSSGANDKLKWCLRVNPKGLDEESKDYLSLYLLLVSCPKSEVRAKFKFSILNAKGEETKAMESQRAYRFVQGKDWGVKKFIRRDFLLDEANGLLPDDKLTLFCEVSVVQDSVNISGQNTMNMVKVPECRLADELGGLWENSRFTDCCLCVAGQEFQAHKAILAARSPVFSAMFEHEMEESKKNRVEINDVEPEVFKEMMCFIYTGKAPNLDKMADDLLAAADKYALERLKVMCEDALCSNLSVENAAEILILADLHSADQLKTQAVDFINYHASDVLETSGWKSMVVSHPHLVAEAYRSLASAQCPFLGPPRKRLKQS [F133V]

# Variants of: B1
# Details: with rxra_human RXRA
row,effect of a mutation on the interaction,Variant
1,with no effect,MSRVPSPPPPAEMSSGPVAESWCYTQIKVVKFSYMWTINNFSFCREEMGEVIKSSTFSSGANDKLKWCLRVNPKGLDEESKDYLSLYLLLVSCPKSEVRAKFKFSILNAKGEETKAMESQRAYRFVQGKDWGVKKFIRRDFLLDEANGLLPDDKLTLFCEVSVVQDSVNISGQNTMNMVKVPECRLADELGGLWENSRFTDCCLCVAGQEFQAHKAILAARSPVFSAMFEHEMEESKKNRVEINDVEPEVFKEMMCFIYTGKAPNLDKMADDLLAAADKYALERLKVMCEDALCSNLSVENAAEILILADLHSADQLKTQAVDFINYHASDVLETSGWKSMVVSHPHLVAEAYRSLASAQCPFLGPPRKRLKQS [F133V]

# Variants of: B1
# Details: with sdha_human SDHA
row,effect of a mutation on the interaction,Variant
1,with no effect,MSRVPSPPPPAEMSSGPVAESWCYTQIKVVKFSYMWTINNFSFCREEMGEVIKSSTFSSGANDKLKWCLRVNPKGLDEESKDYLSLYLLLVSCPKSEVRAKFKFSILNAKGEETKAMESQRAYRFVQGKDWGVKKFIRRDFLLDEANGLLPDDKLTLFCEVSVVQDSVNISGQNTMNMVKVPECRLADELGGLWENSRFTDCCLCVAGQEFQAHKAILAARSPVFSAMFEHEMEESKKNRVEINDVEPEVFKEMMCFIYTGKAPNLDKMADDLLAAADKYALERLKVMCEDALCSNLSVENAAEILILADLHSADQLKTQAVDFINYHASDVLETSGWKSMVVSHPHLVAEAYRSLASAQCPFLGPPRKRLKQS [F133V]

# Variants of: B1
# Details: with setbp_human SETBP1, Q9Y6X0
row,effect of a mutation on the interaction,Variant
1,with no effect,MSRVPSPPPPAEMSSGPVAESWCYTQIKVVKFSYMWTINNFSFCREEMGEVIKSSTFSSGANDKLKWCLRVNPKGLDEESKDYLSLYLLLVSCPKSEVRAKFKFSILNAKGEETKAMESQRAYRFVQGKDWGVKKFIRRDFLLDEANGLLPDDKLTLFCEVSVVQDSVNISGQNTMNMVKVPECRLADELGGLWENSRFTDCCLCVAGQEFQAHKAILAARSPVFSAMFEHEMEESKKNRVEINDVEPEVFKEMMCFIYTGKAPNLDKMADDLLAAADKYALERLKVMCEDALCSNLSVENAAEILILADLHSADQLKTQAVDFINYHASDVLETSGWKSMVVSHPHLVAEAYRSLASAQCPFLGPPRKRLKQS [F133V]

# Variants of: B1
# Details: with setb1_human SETDB1, Q15047
row,effect of a mutation on the interaction,Variant
1,with no effect,MSRVPSPPPPAEMSSGPVAESWCYTQIKVVKFSYMWTINNFSFCREEMGEVIKSSTFSSGANDKLKWCLRVNPKGLDEESKDYLSLYLLLVSCPKSEVRAKFKFSILNAKGEETKAMESQRAYRFVQGKDWGVKKFIRRDFLLDEANGLLPDDKLTLFCEVSVVQDSVNISGQNTMNMVKVPECRLADELGGLWENSRFTDCCLCVAGQEFQAHKAILAARSPVFSAMFEHEMEESKKNRVEINDVEPEVFKEMMCFIYTGKAPNLDKMADDLLAAADKYALERLKVMCEDALCSNLSVENAAEILILADLHSADQLKTQAVDFINYHASDVLETSGWKSMVVSHPHLVAEAYRSLASAQCPFLGPPRKRLKQS [F133V]

# Variants of: B1
# Details: with skp2_human SKP2, Q13309
# Sequence of skp2_human SKP2, Q13309 (Q13309 whole entry): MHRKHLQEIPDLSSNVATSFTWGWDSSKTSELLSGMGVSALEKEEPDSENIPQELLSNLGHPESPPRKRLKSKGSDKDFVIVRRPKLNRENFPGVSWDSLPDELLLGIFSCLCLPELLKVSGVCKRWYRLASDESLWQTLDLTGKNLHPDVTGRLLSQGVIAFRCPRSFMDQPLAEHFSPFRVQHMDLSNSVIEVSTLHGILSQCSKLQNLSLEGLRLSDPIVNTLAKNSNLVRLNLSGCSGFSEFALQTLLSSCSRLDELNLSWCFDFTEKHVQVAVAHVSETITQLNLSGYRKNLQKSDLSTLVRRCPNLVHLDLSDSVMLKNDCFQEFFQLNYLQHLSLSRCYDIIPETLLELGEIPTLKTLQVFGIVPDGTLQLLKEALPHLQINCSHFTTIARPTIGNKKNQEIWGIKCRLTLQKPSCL
row,effect of a mutation on the interaction,Variant
1,with no effect,MSRVPSPPPPAEMSSGPVAESWCYTQIKVVKFSYMWTINNFSFCREEMGEVIKSSTFSSGANDKLKWCLRVNPKGLDEESKDYLSLYLLLVSCPKSEVRAKFKFSILNAKGEETKAMESQRAYRFVQGKDWGVKKFIRRDFLLDEANGLLPDDKLTLFCEVSVVQDSVNISGQNTMNMVKVPECRLADELGGLWENSRFTDCCLCVAGQEFQAHKAILAARSPVFSAMFEHEMEESKKNRVEINDVEPEVFKEMMCFIYTGKAPNLDKMADDLLAAADKYALERLKVMCEDALCSNLSVENAAEILILADLHSADQLKTQAVDFINYHASDVLETSGWKSMVVSHPHLVAEAYRSLASAQCPFLGPPRKRLKQS [F133V]

# Variants of: B1
# Details: with xct_human SLC7A11, Q9UPY5
# Sequence of xct_human SLC7A11, Q9UPY5 (Q9UPY5 whole entry): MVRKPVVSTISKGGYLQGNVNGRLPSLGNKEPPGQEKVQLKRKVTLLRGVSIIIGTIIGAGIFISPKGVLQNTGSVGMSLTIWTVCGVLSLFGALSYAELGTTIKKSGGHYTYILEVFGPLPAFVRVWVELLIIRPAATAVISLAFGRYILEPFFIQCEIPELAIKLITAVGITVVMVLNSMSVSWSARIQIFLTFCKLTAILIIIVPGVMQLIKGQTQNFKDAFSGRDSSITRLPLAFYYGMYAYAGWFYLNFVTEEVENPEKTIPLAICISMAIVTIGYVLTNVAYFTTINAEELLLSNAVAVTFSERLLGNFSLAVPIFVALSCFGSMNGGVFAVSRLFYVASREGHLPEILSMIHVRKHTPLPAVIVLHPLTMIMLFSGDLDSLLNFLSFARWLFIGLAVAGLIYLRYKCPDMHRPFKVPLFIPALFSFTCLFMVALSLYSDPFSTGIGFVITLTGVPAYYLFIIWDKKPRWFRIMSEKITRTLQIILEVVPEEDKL
row,effect of a mutation on the interaction,Variant
1,with no effect,MSRVPSPPPPAEMSSGPVAESWCYTQIKVVKFSYMWTINNFSFCREEMGEVIKSSTFSSGANDKLKWCLRVNPKGLDEESKDYLSLYLLLVSCPKSEVRAKFKFSILNAKGEETKAMESQRAYRFVQGKDWGVKKFIRRDFLLDEANGLLPDDKLTLFCEVSVVQDSVNISGQNTMNMVKVPECRLADELGGLWENSRFTDCCLCVAGQEFQAHKAILAARSPVFSAMFEHEMEESKKNRVEINDVEPEVFKEMMCFIYTGKAPNLDKMADDLLAAADKYALERLKVMCEDALCSNLSVENAAEILILADLHSADQLKTQAVDFINYHASDVLETSGWKSMVVSHPHLVAEAYRSLASAQCPFLGPPRKRLKQS [F133V]

# Variants of: B1
# Details: with smad1_human SMAD1, Q15797
# Sequence of smad1_human SMAD1, Q15797 (Q15797 whole entry): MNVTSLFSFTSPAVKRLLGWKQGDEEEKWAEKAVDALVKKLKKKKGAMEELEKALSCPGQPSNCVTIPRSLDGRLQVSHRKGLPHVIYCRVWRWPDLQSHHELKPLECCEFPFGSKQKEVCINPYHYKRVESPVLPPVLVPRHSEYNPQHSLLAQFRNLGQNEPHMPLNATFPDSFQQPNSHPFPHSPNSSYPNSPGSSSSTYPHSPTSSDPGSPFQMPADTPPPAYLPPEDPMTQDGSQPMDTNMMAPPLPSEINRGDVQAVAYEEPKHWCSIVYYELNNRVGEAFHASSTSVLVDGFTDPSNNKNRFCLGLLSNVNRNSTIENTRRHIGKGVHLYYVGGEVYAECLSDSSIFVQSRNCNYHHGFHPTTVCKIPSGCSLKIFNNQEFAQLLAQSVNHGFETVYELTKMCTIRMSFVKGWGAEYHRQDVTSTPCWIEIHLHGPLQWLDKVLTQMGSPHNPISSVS
row,effect of a mutation on the interaction,Variant
1,with no effect,MSRVPSPPPPAEMSSGPVAESWCYTQIKVVKFSYMWTINNFSFCREEMGEVIKSSTFSSGANDKLKWCLRVNPKGLDEESKDYLSLYLLLVSCPKSEVRAKFKFSILNAKGEETKAMESQRAYRFVQGKDWGVKKFIRRDFLLDEANGLLPDDKLTLFCEVSVVQDSVNISGQNTMNMVKVPECRLADELGGLWENSRFTDCCLCVAGQEFQAHKAILAARSPVFSAMFEHEMEESKKNRVEINDVEPEVFKEMMCFIYTGKAPNLDKMADDLLAAADKYALERLKVMCEDALCSNLSVENAAEILILADLHSADQLKTQAVDFINYHASDVLETSGWKSMVVSHPHLVAEAYRSLASAQCPFLGPPRKRLKQS [F133V]

# Variants of: B1
# Details: with smca4_human SMARCA4, P51532
# Sequence of smca4_human SMARCA4, P51532 (P51532 whole entry): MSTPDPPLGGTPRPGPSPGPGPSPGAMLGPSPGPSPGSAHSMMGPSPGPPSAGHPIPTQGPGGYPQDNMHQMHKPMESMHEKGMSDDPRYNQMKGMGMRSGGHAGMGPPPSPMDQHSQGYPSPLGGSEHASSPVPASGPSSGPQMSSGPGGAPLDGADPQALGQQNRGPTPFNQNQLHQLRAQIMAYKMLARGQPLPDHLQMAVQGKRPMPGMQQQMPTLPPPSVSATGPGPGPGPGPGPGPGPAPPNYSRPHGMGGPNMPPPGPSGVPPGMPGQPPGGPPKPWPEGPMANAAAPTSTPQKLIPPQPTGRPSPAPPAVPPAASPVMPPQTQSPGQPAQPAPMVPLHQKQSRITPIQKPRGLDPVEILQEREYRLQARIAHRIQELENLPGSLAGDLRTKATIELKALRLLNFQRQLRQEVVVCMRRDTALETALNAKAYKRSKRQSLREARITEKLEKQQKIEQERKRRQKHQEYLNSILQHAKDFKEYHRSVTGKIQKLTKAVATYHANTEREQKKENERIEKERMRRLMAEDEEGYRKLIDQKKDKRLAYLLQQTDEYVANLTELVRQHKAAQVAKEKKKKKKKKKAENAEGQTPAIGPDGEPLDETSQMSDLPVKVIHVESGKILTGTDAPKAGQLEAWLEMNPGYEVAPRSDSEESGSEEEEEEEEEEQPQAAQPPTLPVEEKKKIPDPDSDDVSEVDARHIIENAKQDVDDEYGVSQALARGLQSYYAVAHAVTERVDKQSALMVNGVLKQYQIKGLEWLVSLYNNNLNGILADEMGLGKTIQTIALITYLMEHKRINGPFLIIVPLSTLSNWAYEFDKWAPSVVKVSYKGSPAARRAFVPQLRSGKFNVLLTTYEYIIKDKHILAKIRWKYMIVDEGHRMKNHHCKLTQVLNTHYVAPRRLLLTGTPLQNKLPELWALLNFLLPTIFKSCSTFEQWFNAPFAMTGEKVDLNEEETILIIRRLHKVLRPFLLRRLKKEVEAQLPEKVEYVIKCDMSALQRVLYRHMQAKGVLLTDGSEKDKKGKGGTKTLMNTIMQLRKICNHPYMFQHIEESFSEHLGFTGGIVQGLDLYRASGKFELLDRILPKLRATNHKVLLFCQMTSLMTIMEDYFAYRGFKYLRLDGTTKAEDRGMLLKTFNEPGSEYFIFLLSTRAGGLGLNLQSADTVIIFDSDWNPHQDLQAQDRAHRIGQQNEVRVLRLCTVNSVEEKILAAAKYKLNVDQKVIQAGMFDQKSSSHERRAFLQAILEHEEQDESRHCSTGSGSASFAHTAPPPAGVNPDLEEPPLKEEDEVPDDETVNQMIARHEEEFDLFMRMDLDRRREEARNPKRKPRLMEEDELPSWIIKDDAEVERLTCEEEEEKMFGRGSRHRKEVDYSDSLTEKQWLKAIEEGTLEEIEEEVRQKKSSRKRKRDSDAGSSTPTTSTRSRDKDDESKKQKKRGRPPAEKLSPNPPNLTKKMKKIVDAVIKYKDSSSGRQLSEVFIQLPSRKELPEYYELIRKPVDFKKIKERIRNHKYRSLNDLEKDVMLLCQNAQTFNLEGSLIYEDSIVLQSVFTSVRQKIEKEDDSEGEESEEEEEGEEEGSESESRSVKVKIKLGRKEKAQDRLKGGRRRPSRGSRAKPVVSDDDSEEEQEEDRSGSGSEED
row,effect of a mutation on the interaction,Variant
1,with no effect,MSRVPSPPPPAEMSSGPVAESWCYTQIKVVKFSYMWTINNFSFCREEMGEVIKSSTFSSGANDKLKWCLRVNPKGLDEESKDYLSLYLLLVSCPKSEVRAKFKFSILNAKGEETKAMESQRAYRFVQGKDWGVKKFIRRDFLLDEANGLLPDDKLTLFCEVSVVQDSVNISGQNTMNMVKVPECRLADELGGLWENSRFTDCCLCVAGQEFQAHKAILAARSPVFSAMFEHEMEESKKNRVEINDVEPEVFKEMMCFIYTGKAPNLDKMADDLLAAADKYALERLKVMCEDALCSNLSVENAAEILILADLHSADQLKTQAVDFINYHASDVLETSGWKSMVVSHPHLVAEAYRSLASAQCPFLGPPRKRLKQS [F133V]

# Variants of: B1
# Details: with snf5_human SMARCB1, Q12824
# Sequence of snf5_human SMARCB1, Q12824 (Q12824 whole entry): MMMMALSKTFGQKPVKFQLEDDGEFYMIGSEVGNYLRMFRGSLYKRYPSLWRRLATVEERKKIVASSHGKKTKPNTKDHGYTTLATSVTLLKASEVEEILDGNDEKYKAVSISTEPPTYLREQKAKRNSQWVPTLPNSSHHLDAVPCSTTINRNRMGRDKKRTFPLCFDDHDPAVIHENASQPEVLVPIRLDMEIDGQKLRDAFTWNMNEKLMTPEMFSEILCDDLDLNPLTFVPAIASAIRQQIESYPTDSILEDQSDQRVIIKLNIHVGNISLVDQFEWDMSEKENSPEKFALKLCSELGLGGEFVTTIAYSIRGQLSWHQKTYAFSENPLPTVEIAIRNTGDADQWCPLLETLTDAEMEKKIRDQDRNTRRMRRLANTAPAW
row,effect of a mutation on the interaction,Variant
1,with no effect,MSRVPSPPPPAEMSSGPVAESWCYTQIKVVKFSYMWTINNFSFCREEMGEVIKSSTFSSGANDKLKWCLRVNPKGLDEESKDYLSLYLLLVSCPKSEVRAKFKFSILNAKGEETKAMESQRAYRFVQGKDWGVKKFIRRDFLLDEANGLLPDDKLTLFCEVSVVQDSVNISGQNTMNMVKVPECRLADELGGLWENSRFTDCCLCVAGQEFQAHKAILAARSPVFSAMFEHEMEESKKNRVEINDVEPEVFKEMMCFIYTGKAPNLDKMADDLLAAADKYALERLKVMCEDALCSNLSVENAAEILILADLHSADQLKTQAVDFINYHASDVLETSGWKSMVVSHPHLVAEAYRSLASAQCPFLGPPRKRLKQS [F133V]

# Variants of: B1
# Details: with smo_human SMO
row,effect of a mutation on the interaction,Variant
1,with no effect,MSRVPSPPPPAEMSSGPVAESWCYTQIKVVKFSYMWTINNFSFCREEMGEVIKSSTFSSGANDKLKWCLRVNPKGLDEESKDYLSLYLLLVSCPKSEVRAKFKFSILNAKGEETKAMESQRAYRFVQGKDWGVKKFIRRDFLLDEANGLLPDDKLTLFCEVSVVQDSVNISGQNTMNMVKVPECRLADELGGLWENSRFTDCCLCVAGQEFQAHKAILAARSPVFSAMFEHEMEESKKNRVEINDVEPEVFKEMMCFIYTGKAPNLDKMADDLLAAADKYALERLKVMCEDALCSNLSVENAAEILILADLHSADQLKTQAVDFINYHASDVLETSGWKSMVVSHPHLVAEAYRSLASAQCPFLGPPRKRLKQS [F133V]

# Variants of: B1
# Details: with smuf1_human SMURF1, Q9HCE7
# Sequence of smuf1_human SMURF1, Q9HCE7 (Q9HCE7 whole entry): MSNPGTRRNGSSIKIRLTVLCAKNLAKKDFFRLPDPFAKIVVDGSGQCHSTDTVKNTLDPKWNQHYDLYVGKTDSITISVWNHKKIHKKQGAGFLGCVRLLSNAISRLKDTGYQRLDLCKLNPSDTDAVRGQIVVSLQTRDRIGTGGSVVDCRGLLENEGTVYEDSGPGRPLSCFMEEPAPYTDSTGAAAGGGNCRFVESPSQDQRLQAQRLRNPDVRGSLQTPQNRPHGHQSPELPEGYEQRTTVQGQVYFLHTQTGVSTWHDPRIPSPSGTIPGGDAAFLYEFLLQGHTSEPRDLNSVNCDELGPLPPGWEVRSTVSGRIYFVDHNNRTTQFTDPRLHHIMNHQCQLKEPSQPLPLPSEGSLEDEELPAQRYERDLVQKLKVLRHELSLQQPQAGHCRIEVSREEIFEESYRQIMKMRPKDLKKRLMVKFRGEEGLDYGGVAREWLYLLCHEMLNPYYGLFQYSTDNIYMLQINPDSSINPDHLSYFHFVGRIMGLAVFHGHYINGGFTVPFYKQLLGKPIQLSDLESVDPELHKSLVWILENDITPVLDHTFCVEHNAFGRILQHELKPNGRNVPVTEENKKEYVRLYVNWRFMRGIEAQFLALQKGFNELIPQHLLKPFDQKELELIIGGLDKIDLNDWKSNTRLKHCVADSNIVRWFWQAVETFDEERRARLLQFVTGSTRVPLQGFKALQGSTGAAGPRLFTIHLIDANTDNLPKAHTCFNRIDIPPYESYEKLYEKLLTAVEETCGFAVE
row,effect of a mutation on the interaction,Variant
1,with no effect,MSRVPSPPPPAEMSSGPVAESWCYTQIKVVKFSYMWTINNFSFCREEMGEVIKSSTFSSGANDKLKWCLRVNPKGLDEESKDYLSLYLLLVSCPKSEVRAKFKFSILNAKGEETKAMESQRAYRFVQGKDWGVKKFIRRDFLLDEANGLLPDDKLTLFCEVSVVQDSVNISGQNTMNMVKVPECRLADELGGLWENSRFTDCCLCVAGQEFQAHKAILAARSPVFSAMFEHEMEESKKNRVEINDVEPEVFKEMMCFIYTGKAPNLDKMADDLLAAADKYALERLKVMCEDALCSNLSVENAAEILILADLHSADQLKTQAVDFINYHASDVLETSGWKSMVVSHPHLVAEAYRSLASAQCPFLGPPRKRLKQS [F133V]

# Variants of: B1
# Details: with socs1_human SOCS1, O15524
# Sequence of socs1_human SOCS1, O15524 (O15524 whole entry): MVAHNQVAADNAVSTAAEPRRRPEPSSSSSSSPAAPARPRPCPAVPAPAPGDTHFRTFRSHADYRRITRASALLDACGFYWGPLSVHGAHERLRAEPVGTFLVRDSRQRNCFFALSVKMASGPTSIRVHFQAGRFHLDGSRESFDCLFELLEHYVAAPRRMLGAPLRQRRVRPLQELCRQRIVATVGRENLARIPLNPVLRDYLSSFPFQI
row,effect of a mutation on the interaction,Variant
1,with no effect,MSRVPSPPPPAEMSSGPVAESWCYTQIKVVKFSYMWTINNFSFCREEMGEVIKSSTFSSGANDKLKWCLRVNPKGLDEESKDYLSLYLLLVSCPKSEVRAKFKFSILNAKGEETKAMESQRAYRFVQGKDWGVKKFIRRDFLLDEANGLLPDDKLTLFCEVSVVQDSVNISGQNTMNMVKVPECRLADELGGLWENSRFTDCCLCVAGQEFQAHKAILAARSPVFSAMFEHEMEESKKNRVEINDVEPEVFKEMMCFIYTGKAPNLDKMADDLLAAADKYALERLKVMCEDALCSNLSVENAAEILILADLHSADQLKTQAVDFINYHASDVLETSGWKSMVVSHPHLVAEAYRSLASAQCPFLGPPRKRLKQS [F133V]

# Variants of: B1
# Details: with sox10_human SOX10, P56693
# Sequence of sox10_human SOX10, P56693 (P56693 whole entry): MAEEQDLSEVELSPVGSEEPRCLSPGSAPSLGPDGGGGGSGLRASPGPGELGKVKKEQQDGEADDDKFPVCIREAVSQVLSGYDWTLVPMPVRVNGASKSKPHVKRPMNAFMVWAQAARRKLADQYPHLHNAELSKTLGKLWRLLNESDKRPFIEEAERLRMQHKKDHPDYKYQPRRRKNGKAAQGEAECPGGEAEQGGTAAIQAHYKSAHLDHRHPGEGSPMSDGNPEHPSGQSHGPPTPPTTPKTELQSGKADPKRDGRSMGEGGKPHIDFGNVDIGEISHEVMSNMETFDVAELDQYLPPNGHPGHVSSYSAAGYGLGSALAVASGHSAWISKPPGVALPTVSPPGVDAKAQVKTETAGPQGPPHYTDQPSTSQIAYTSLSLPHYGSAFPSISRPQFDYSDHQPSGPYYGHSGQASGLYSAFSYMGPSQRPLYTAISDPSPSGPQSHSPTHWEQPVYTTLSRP
row,effect of a mutation on the interaction,Variant
1,with no effect,MSRVPSPPPPAEMSSGPVAESWCYTQIKVVKFSYMWTINNFSFCREEMGEVIKSSTFSSGANDKLKWCLRVNPKGLDEESKDYLSLYLLLVSCPKSEVRAKFKFSILNAKGEETKAMESQRAYRFVQGKDWGVKKFIRRDFLLDEANGLLPDDKLTLFCEVSVVQDSVNISGQNTMNMVKVPECRLADELGGLWENSRFTDCCLCVAGQEFQAHKAILAARSPVFSAMFEHEMEESKKNRVEINDVEPEVFKEMMCFIYTGKAPNLDKMADDLLAAADKYALERLKVMCEDALCSNLSVENAAEILILADLHSADQLKTQAVDFINYHASDVLETSGWKSMVVSHPHLVAEAYRSLASAQCPFLGPPRKRLKQS [F133V]
